# Laboratory results reported in patent US9493781B2, “Synthetic brassica-derived chloroplast transit peptides” (DOW AGROSCIENCES LLC, priority 2012, dated 2016).
# Tests used:
# Arabidopsis [1] = assay: dgt-28, dgt-32, dgt-33, dgt-3, dgt-7 transformed Arabidopsis (T1, T2, T3) response to postemergence glyphosate, % visual injury; type: in vivo, Arabidopsis thaliana; details: for % Injury Ave / % Injury Range (%) / No. plants with 20-40% injury / No. plants with <20% injury / No. plants with >40% injury: 14 days after application
# From the text: Transgenic T1 Arabidopsis plants containing the dgt-28 transgene were sprayed with differing rates of glyphosate. Elevated rates were applied in this study to determine the relative levels of resistance (105, 420, 1,680 or 3,360 g ae/ha). A typical 1× usage rate of glyphosate that will control non-transformed Arabidopsis is 420 g ae/ha. […] The T1 Arabidopsis plants that were used in this study were variable copy number for the dgt-28 transgene. The low copy dgt-28 T1 Arabidopsis plants were self-pollinated and used to produce T2 plants.
# Results of Glyphosate Selection of Transformed dgt-28 Arabidopsis Plants. The Arabidopsis T1 transformants were first selected from the background of untransformed seed using a glufosinate selection scheme. Three flats or 30,000 seed were analyzed for each T1 construct. The T1 plants selected above were molecularly characterized and representative plants with variable copy number were subsequently transplanted to individual pots and sprayed with various rates of commercial glyphosate as previously described. The response of these plants is presented in terms of % visual injury 2 weeks after treatment (WAT). […] An arithmetic mean and standard deviation is presented for each construct used for Arabidopsis transformation. The range in individual response is also indicated in the last column for each rate and transformation. Wild-type, non-transformed Arabidopsis (c.v. Columbia) served as a glyphosate sensitive control.
# T2Arabidopsis Data. The second generation plants (T2) of selected T1 Arabidopsis events which contained low copy numbers of the dgt-28 transgene were further characterized for glyphosate tolerance. Glyphosate was applied as described previously. The response of the plants is presented in terms of % visual injury 2 weeks after treatment (WAT). […] An arithmetic mean and standard deviation are presented for each construct used for Arabidopsis transformation. The range in individual response is also indicated in the last column for each rate and transformation. Wild-type, non-transformed Arabidopsis (cv. Columbia) served as a glyphosate sensitive control. In the T2 generation hemizygous and homozygous plants were available for testing for each event and therefore were included for each rate of glyphosate tested. Hemizygous plants contain two different alleles at a locus as compared to homozygous plants which contain the same two alleles at a locus. Variability of response to glyphosate is expected in the T2 generation as a result of the difference in gene dosage for hemizygous as compared to homozygous plants. The variability in response to glyphosate is reflected in the standard deviation and range of response.
# T3 Arabidopsis Data. The third generation plants (T3) of selected T2 Arabidopsis events which contained low copy numbers of the dgt-28 transgene were further characterized for glyphosate tolerance. […] Glyphosate was applied as described previously. The response of the plants is presented in terms of % visual injury 2 weeks after treatment (WAT). […] An arithmetic mean and standard deviation are presented for each construct used for Arabidopsis transformation. The range in individual response is also indicated in the last column for each rate and transformation. Wild-type, non-transformed Arabidopsis (cv. Columbia) served as a glyphosate-sensitive control.
# Arabidopsis [2] = assay: Heritability progeny test of T1 families (T2 plants) with glufosinate, Arabidopsis; type: in vivo, Arabidopsis thaliana; details: progeny test of 100 T2 plants, glufosinate 200 g ae/ha
# From the text: Heritability. Confirmed transgenic T1 Arabidopsis events were self-pollinated to produce T2 seed. These seed were progeny tested by applying Ignite™ herbicide containing glufosinate (200 g ae/ha) to 100 random T2 siblings. […] The T1 families (T2 plants) segregated in the anticipated 3 Resistant: 1 Sensitive model for a dominantly inherited single locus with Mendelian inheritance as determined by Chi square analysis (P>0.05). […] Seed were collected from 5 to 15 T2 individuals (T3 seed). Twenty-five T3 siblings from each of 3-4 randomly-selected T2 families were progeny tested as previously described.
# [3] = Table 8, T1 Arabidopsis, 105 g ae/ha glyphosate
# [4] = Table 8, T1 Arabidopsis, 420 g ae/ha glyphosate
# [5] = Table 8, T1 Arabidopsis, 1680 g ae/ha glyphosate
# [6] = Table 8, T1 Arabidopsis, 3360 g ae/ha glyphosate
# [7] = Table 10, T1 Arabidopsis, 1,680 g ae/ha glyphosate
# [8] = Table 12, T2 Arabidopsis, 1 copy, 420 g ae/ha glyphosate
# [9] = Table 12, T2 Arabidopsis, 1 copy, 840 g ae/ha glyphosate
# [10] = Table 12, T2 Arabidopsis, 1 copy, 1680 g ae/ha glyphosate
# [11] = Table 12, T2 Arabidopsis, 1 copy, 3360 g ae/ha glyphosate
molecule,measurement,setting,value
"pDAB105530: TraP5 v2 - dgt-28 v5: binary construct TraP5 v2: dgt-28 v5 (SEQ ID NO:33) (nucleic acid, In-frame fusion of dgt-28 v5 and TraP5 v2) DNA: ATGCAACTCCTGAATCAGAGGCAAGCCCTGCGTCTTGGTCGTTCATCTGCTTCAAAGAACCAGCAAGTTGCTCCACTGGCCTCTAGGCCTGCTTCTTCCTTGAGCGTCAGCGCATCCAGCGTCGCACCTGCACCTGCTTGCTCAGCTCCTGCTGGAGCTGGAAGGCGTGCTGTTGTCGTGAGAGCAGCAAGAGGGATGCCAGCCTTGTCTTTACCTGGATCAAAGAGTATCACAGCTAGGGCACTCTTTCTTGCTGCTGCTGCTGATGGGGTTACTACTTTGGTGAGGCCATTGAGAAGTGACGACACAGAAGGATTCGCTGAGGGGTTAGTTCGTTTAGGCTATCGTGTAGGGAGGACACCCGATACTTGGCAAGTCGATGGCAGACCACAAGGACCAGCAGTGGCTGAGGCTGACGTCTACTGTAGAGACGGAGCAACCACCGCTAGATTCTTGCCAACCTTAGCAGCTGCTGGTCACGGAACATACAGATTTGATGCTTCACCACAGATGAGGAGACGTCCTCTTTTGCCCTTAAGCAGAGCCTTGAGGGATTTGGGTGTCGATCTTAGACACGAAGAAGCTGAAGGTCATCACCCTCTGACTGTCCGTGCTGCTGGGGTTGAAGGAGGAGAGGTTACTTTGGATGCTGGTCAGTCAAGTCAGTATCTCACTGCCTTGTTGCTCCTTGGTCCCCTTACAAGACAAGGACTGAGGATAAGGGTTACTGATTTGGTGTCAGCACCATACGTGGAGATTACGCTTGCAATGATGAGGGCTTTCGGAGTTGAAGTGGCAAGGGAGGGAGATGTGTTCGTTGTTCCACCTGGTGGATATCGTGCAACTACGTATGCTATAGAACCCGACGCAAGTACTGCTTCTTACTTCTTCGCAGCTGCTGCTTTGACTCCTGGAGCTGAAGTGACTGTACCTGGGTTAGGCACGGGAGCACTTCAAGGAGATTTGGGATTTGTAGATGTCTTAAGGAGAATGGGAGCCGAGGTGTCCGTAGGAGCTGATGCAACCACTGTTAGAGGAACTGGTGAATTGCGTGGCCTTACAGCCAACATGAGAGACATAAGTGATACGATGCCGACCCTCGCTGCAATAGCACCCTTTGCTAGTGCTCCAGTTAGAATCGAGGATGTTGCCAACACTCGTGTCAAAGAATGTGACAGACTTGAGGCTTGTGCAGAGAACCTTAGGAGGTTGGGAGTAAGGGTTGCAACGGGTCCGGACTGGATTGAGATACACCCTGGTCCAGCTACTGGTGCTCAAGTCACAAGCTATGGTGATCACAGAATTGTGATGTCATTTGCAGTGACTGGACTTCGTGTGCCTGGGATCAGCTTCGACGACCCTGGCTGTGTTCGTAAGACTTTTCCTGGGTTTCACGAGGCTTTCGCAGAATTGAGGCGTGGCATTGGGAGCTGA",Glyphosate tolerance,"Arabidopsis [1]; T2 Arabidopsis, versus dgt-28 constructs with other TraP transit peptides",did not provide robust tolerance to glyphosate
same,% Injury Ave,Arabidopsis [1]; [3],39.3%
same,% Injury Range (%),Arabidopsis [1]; [3],8-100%
same,No. plants with 20-40% injury,Arabidopsis [1]; [3],2
same,No. plants with <20% injury,Arabidopsis [1]; [3],2
same,No. plants with >40% injury,Arabidopsis [1]; [3],2
same,% Injury Ave,Arabidopsis [1]; [4],33.0%
same,% Injury Range (%),Arabidopsis [1]; [4],8-85%
same,No. plants with 20-40% injury,Arabidopsis [1]; [4],4
same,No. plants with <20% injury,Arabidopsis [1]; [4],1
same,No. plants with >40% injury,Arabidopsis [1]; [4],1
same,% Injury Ave,Arabidopsis [1]; [5],47.5%
same,% Injury Range (%),Arabidopsis [1]; [5],25-85%
same,No. plants with 20-40% injury,Arabidopsis [1]; [5],4
same,No. plants with <20% injury,Arabidopsis [1]; [5],0
same,No. plants with >40% injury,Arabidopsis [1]; [5],2
same,% Injury Ave,Arabidopsis [1]; [6],76.7%
same,% Injury Range (%),Arabidopsis [1]; [6],50-85%
same,No. plants with 20-40% injury,Arabidopsis [1]; [6],0
same,No. plants with <20% injury,Arabidopsis [1]; [6],0
same,No. plants with >40% injury,Arabidopsis [1]; [6],6
same,% Injury Ave,Arabidopsis [1]; [7],47.5%
same,% Injury Range (%),Arabidopsis [1]; [7],25-85%
same,No. plants with 20-40% injury,Arabidopsis [1]; [7],4
same,No. plants with <20% injury,Arabidopsis [1]; [7],0
same,No. plants with >40% injury,Arabidopsis [1]; [7],2
same,% Injury Ave,Arabidopsis [1]; [8],75.0%
same,% Injury Range (%),Arabidopsis [1]; [8],50-90%
same,No. plants with 20-40% injury,Arabidopsis [1]; [8],0
same,No. plants with <20% injury,Arabidopsis [1]; [8],0
same,No. plants with >40% injury,Arabidopsis [1]; [8],4
same,% Injury Ave,Arabidopsis [1]; [9],80.0%
same,% Injury Range (%),Arabidopsis [1]; [9],50-90%
same,No. plants with 20-40% injury,Arabidopsis [1]; [9],0
same,No. plants with <20% injury,Arabidopsis [1]; [9],0
same,No. plants with >40% injury,Arabidopsis [1]; [9],4
same,% Injury Ave,Arabidopsis [1]; [10],75.0%
same,% Injury Range (%),Arabidopsis [1]; [10],60-85%
same,No. plants with 20-40% injury,Arabidopsis [1]; [10],0
same,No. plants with <20% injury,Arabidopsis [1]; [10],0
same,No. plants with >40% injury,Arabidopsis [1]; [10],4
same,% Injury Ave,Arabidopsis [1]; [11],76.3%
same,% Injury Range (%),Arabidopsis [1]; [11],70-80%
same,No. plants with 20-40% injury,Arabidopsis [1]; [11],0
same,No. plants with <20% injury,Arabidopsis [1]; [11],0
same,No. plants with >40% injury,Arabidopsis [1]; [11],4
same,T1 Families Tested Segregating at 1 Locus (%),Arabidopsis [2],100%
